Consider three substances from US6998106.

Assay [1] concerns the target EGFRvIII (form used in the assay not stated) (UniProt P00533). In words: surface plasmon resonance.
The target of assay [2] is EGFRvIII (mutant epidermal growth factor receptor) expressed by the U87MGΔEGFR cell line (UniProt P00533). Description: binding of labeled mAb to EGFRvIII-positive tumor xenograft homogenate, Lindmo method (per Example 2).
Assay [3] shares this target. In words: binding of radiolabeled mAb to U87MGΔEGFR cells (Scatchard analysis per Example 2).
In assay [4] the target is EGFRvIII (form used in the assay not stated) (UniProt P00533). Description: SIPC-labeled scFv; method not stated.
For assay [5] the target is unchanged. In words: SIPC-labeled scFv; immunoreactive fraction, antigen source not stated.

Take “L8A4 scFv dimer with a 5 amino acid linker between the VL and VH domains”: the Ka in assay [1] came to 5.5e+09 M⁻¹.

In turn, “^211 At-labeled L8A4 (anti-EGFRvIII mAb L8A4 labeled with N-succinimidyl 5-[^211 At]astato-3-pyridinecarboxylate, SAPC) (antibody)” registered an immunoreactive fraction in assay [2] of 69 to 89%. Besides, the Ka in assay [3] stood at 9.7e+08 M⁻¹.

“scFv monomer based on the L8A4 variable region, labeled with SIPC” gave a Ka in assay [4] of 1.5e+08 M⁻¹. The immunoreactive fraction in assay [5] was in the range of 65 to 80%.
